Literature values, collected in PMC12687026.

How the values were obtained:
Glu212 = experiment: kinetics; conditions: green (unconverted) LEA
His194 = experiment: kinetics; conditions: green (unconverted) LEA

In the case of “LEA (least evolved ancestor), engineered Kaede-like green-to-red photoconvertible fluorescent protein (synthetic construct (reconstructed ancestral coral fluorescent protein))”, the pKa (Glu212) is listed as “∼4.5” and the pKa (His194) is listed as “∼7.5”.
